# Results published in patent US8663912B2, “Fluorogenic substrate for ADAMTS13” (Washington University, priority 2011, dated 2014).
# * marks the point of attachment. X1 = CC1(C)C(/C=C/C2=C(Cl)C(=C/C=C3/N(CCCCCC(=O)*)c4ccc5cc(S(=O)(=O)O)ccc5c4C3(C)C)/CCC2)=[N+](CCCS(=O)(=O)[O-])c2ccc(N(CCCS(=O)(=O)O)CCCS(=O)(=O)O)cc21; X2 = CC(C)(C)c1cc(/C=C/C=C2\N(CCCS(=O)(=O)O)c3ccc(S(=O)(=O)O)cc3C2(C)CCCC(=O)CCN2C(=O)CC(*)C2=O)c2ccc(N(CCCS(=O)(=O)[O-])CCCS(=O)(=O)O)cc2[o+]1
# Legend:
# [1] = Solubility of substrate in water; assay type: physicochemical; conditions: sodium salt
# Source text: The present inventors have tested several combinations of donor and quencher groups chosen for lack of interference from blood proteins. For example, modification at Cys^1610 with Alexa Fluor 594 maleimide (abs 590 nm, em 617 nm, ε 96,000) and at N-terminal. […] In one embodiment, a substrate of the present teachings is modified at Cys^1610 with DyLight 633-maleimide (Thermo, abs 638 nm, em 658 nm, ε 170,000), and at N-terminal Gly with IRDye QC-1 N-hydroxysuccinimidyl ester (LI-COR, abs 737 nm, ε 96,000). […] After RP-HPLC purification the doubly-labeled substrate (FRETS-rVWF71) is soluble at >50 μM.
# In these experiments, DyLight 633 maleimide (Thermo Scientific, Waltham, Mass.) 1 mg/100 μL in dimethyl sulfoxide (DMSO) was added dropwise with stirring to peptide VWF71 (10 mg) in ≦2 mL of 100 mM sodium phosphate, pH 7.1, in the dark, and stirred overnight at room temperature. The product DyLight 633-rVWF71 was purified by HPLC on C18 using the TEAA/acetonitrile solvent system as described for the purification of VWF71. DyLight 633-rVWF71 was lyophilized and desalted on a small column of PD-10 in ≦2 mL of 100 mM sodium phosphate, pH 7.9. IRDye QC-1 N-hydroxysuccinimide ester 0.5 mg in 100 μL DMSO was added dropwise with stirring and the solution was stirred overnight at room temperature protected from light. […]
# ADAMTS13 = biological target: T1, ADAMTS13 (Homo sapiens, UniProt Q76LX8); test: Effect of bilirubin and hemoglobin on FRETS-rVWF71 ADAMTS13 assays; assay type: biochemical; design: FRETS-rVWF71 cleavage by plasma ADAMTS13 (50 μL) was assessed in 200 μL reactions; from tissue; host or cells: human plasma or serum (pooled normal plasma, healthy donors, TTP patients); conditions: >20 mg/dL (250 μM) conjugated bilirubin
# T1 sequence (Q76LX8 75-1427): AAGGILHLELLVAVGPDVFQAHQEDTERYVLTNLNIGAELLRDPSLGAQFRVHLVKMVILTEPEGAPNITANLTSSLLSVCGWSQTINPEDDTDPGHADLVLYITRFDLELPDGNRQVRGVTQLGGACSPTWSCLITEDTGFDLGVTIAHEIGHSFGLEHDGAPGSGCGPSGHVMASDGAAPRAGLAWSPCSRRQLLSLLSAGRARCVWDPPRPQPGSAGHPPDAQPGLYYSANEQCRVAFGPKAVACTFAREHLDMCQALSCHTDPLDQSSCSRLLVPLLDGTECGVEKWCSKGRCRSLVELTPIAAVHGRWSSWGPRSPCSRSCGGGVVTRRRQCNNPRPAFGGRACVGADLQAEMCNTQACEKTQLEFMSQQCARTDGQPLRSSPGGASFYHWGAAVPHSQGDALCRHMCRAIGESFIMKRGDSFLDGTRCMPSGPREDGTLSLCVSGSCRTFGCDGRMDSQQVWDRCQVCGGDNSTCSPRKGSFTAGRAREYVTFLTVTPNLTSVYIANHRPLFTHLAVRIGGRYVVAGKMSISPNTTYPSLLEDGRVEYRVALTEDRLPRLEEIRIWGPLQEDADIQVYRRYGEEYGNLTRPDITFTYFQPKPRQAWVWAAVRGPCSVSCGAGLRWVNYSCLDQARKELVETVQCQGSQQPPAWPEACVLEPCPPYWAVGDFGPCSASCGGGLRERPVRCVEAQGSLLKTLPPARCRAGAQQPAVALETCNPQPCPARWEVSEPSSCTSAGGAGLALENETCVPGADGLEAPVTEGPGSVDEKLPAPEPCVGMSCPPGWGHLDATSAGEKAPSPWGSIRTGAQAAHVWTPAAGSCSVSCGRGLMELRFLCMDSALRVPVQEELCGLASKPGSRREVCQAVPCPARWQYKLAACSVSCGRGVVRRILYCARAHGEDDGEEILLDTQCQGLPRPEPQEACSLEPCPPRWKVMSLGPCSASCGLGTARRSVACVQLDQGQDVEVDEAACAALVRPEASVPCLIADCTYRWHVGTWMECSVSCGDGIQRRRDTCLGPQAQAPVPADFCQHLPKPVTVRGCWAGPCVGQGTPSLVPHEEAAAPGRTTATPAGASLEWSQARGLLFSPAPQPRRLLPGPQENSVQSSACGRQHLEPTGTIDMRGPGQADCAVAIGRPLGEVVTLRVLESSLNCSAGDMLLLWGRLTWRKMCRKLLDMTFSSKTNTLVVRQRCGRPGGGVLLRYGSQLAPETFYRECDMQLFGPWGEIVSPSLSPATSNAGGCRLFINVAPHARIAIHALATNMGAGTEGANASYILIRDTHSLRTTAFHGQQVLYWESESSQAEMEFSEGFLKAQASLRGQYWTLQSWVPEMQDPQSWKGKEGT
substance,measurement,setting,value
X1-GQAPNLVYMVTGC(X2)PASDEIRRLPGDIQVVPIGVGPNANVQELERIGWPNAPILIQDFETLPREAPDLVLQR [FRETS-rVWF71],solubility,[1],> 250 µM
same,sensitivity of assay to conjugated bilirubin,ADAMTS13,insensitive
